According to patent US6183967:

Legend:
Assay in all cases: FP filter
[1] = tested on: TZ05 DNA polymerase (Thermus species Z05); conditions: 55C
[2] = molecular target: Taq DNA polymerase (Thermus aquaticus) (UniProt P19821)
[3] = molecular target: Tth DNA polymerase (Thermus thermophilus) (UniProt P52028)
Tth DNA polymerase (Thermus thermophilus), sequence (P52028 whole entry): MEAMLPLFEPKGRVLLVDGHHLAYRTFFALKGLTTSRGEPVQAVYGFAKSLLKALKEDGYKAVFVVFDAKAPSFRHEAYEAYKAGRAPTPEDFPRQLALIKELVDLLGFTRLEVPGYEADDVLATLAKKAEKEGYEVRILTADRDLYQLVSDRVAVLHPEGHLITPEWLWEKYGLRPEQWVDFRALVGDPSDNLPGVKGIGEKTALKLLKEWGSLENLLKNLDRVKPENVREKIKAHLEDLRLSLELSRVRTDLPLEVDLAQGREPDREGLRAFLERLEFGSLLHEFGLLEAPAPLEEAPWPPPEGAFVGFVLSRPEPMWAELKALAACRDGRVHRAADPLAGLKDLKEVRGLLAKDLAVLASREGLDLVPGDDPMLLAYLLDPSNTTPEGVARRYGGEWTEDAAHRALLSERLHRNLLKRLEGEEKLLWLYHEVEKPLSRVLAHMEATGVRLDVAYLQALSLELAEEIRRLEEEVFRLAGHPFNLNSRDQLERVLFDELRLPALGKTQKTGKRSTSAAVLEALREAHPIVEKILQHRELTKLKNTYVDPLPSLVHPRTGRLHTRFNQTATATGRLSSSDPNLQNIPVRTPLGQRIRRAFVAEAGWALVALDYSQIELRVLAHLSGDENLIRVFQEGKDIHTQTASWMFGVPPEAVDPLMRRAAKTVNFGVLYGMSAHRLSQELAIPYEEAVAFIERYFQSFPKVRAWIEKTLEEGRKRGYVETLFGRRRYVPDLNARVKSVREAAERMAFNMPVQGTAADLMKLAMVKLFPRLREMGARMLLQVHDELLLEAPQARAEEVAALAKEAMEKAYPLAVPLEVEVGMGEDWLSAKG

Taq DNA polymerase (Thermus aquaticus), sequence (P19821 whole entry): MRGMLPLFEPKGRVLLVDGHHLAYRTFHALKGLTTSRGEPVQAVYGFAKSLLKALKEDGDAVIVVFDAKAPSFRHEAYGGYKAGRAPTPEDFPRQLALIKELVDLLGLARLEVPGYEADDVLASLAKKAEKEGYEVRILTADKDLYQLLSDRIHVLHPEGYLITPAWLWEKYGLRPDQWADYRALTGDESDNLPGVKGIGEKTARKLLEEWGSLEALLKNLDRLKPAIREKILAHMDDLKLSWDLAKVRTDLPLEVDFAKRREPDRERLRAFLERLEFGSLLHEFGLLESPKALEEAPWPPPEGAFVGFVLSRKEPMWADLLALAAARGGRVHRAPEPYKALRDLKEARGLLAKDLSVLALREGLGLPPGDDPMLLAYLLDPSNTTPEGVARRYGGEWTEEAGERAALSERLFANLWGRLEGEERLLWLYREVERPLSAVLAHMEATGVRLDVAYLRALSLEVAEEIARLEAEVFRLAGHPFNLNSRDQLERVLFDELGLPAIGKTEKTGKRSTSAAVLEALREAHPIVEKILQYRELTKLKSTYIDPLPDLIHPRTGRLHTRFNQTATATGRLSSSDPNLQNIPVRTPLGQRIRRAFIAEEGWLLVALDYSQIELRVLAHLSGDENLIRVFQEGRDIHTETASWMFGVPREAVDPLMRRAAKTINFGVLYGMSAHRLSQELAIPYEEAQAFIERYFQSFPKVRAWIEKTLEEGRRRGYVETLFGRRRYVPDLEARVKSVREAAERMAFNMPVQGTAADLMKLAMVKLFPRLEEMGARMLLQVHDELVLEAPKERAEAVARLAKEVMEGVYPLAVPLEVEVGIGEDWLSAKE

“TTCTCGGTTGGTCTCTGGCGGAGCACACCGGGGGGGCTGCGGGCAAGGCGGGTGTCTTGTGTATGATTCGCTTTTCCC [TZ1]” was tested, and the Kd ([1]; IT50 52.5C) was 0.016 nM.

Sequence “TTCTCGGTTGGTCTCTGGCGGAGCACGGGAGGGTGTGGAGTGGGTGGCGCGGGCTCTTGTGTATGATTCGCTTTTCCC [TZ36]” has a Kd ([1]; IT50 51C) of 0.02 nM.

In the case of “TTCTCGGTTGGTCTCTGGCGGAGCACGTCGGGGGGGCCCTGGGGACGGGCAGGCGTCTTGTGTATGATTCGCTTTTCCC [TZ26]”, the Kd ([1]; printed as >>500, IT50 41C) is reported as greater than 0.5 nM.

Sequence “TTCTCGGTTGGTCTCTGGCGGAGCACGTCGGGGGGGCGTTGGGACGGGCAGACGTCTTGTGTATGATTCGCTTTTCCC [TZ13]” has a Kd ([1]; IT50 58.5C) of 0.017 nM.

“TTCTCGGTTGGTCTCTGGCGGAGCATACACGACGTCATTCTAGCGTTTTGACGTCTTGTGTATGATTCGCTTTTCCC [ligand 22 (TQH22) / TZ3]” gave a Kd ([1]; as TZ3, IT50 52C) of 0.009 nM.

For “TTCTCGGTTGGTCTCTGGCGGAGCGAACATACGAAGACATTCCAACGTTTTGTCTTGTGTATGATTCGCTTTTCCC [TZ69]”, the Kd ([1]; IT50 46C) was 0.02 nM.

Sequence “TTCTCGGTTGGTCTCTGGCGGAGCGAAGCATACGAAGACATTCCAACGTTTTGTCTTGTGTATGATTCGCTTTTCCC [TZ8]” has a Kd ([1]; IT50 52C) of 0.005 nM.

In the case of “TTCTCGGTTGGTCTCTGGCGGAGCGAAGCATACGAAGACATTCCAACGTTTTGTCTTGTGTATGATTCGCTTTTCCC [TZ54]”, the Kd ([1]; IT50 52C) is reported as 0.023 nM.

Sequence “TTCTCGGTTGGTCTCTGGCGGAGCGCGAGGGTGTGGCGTGGGTGGCGCGATCTTGTGTATGATTCGCTTTTCCC [TZ2]” has a Kd ([1]; printed as >>1000, IT50 <<35C) greater than 1 nM.

“TTCTCGGTTGGTCTCTGGCGGAGCGGATCAGACACGAGACATTGCGGACTTTTGTCTTGTGTATGATTCGCTTTTCCC [TZ9]” was tested, and the Kd ([1]; IT50 52C) was 0.005 nM.

Work on “TTCTCGGTTGGTCTCTGGCGGAGCNNNNNNNNNNNNNNNNNNNNNNNNNNNNNNTCTTGTGTATGATTCGCTTTTCCC [enriched Taq pool round 12]” yielded a Kd ([2]; Taq binding buffer, room temp) of 3.5 nM and a Kd ([3]; cross binding, room temp) of 0.2 nM.

Sequence “TTCTCGGTTGGTCTCTGGCGGAGCNNNNNNNNNNNNNNNNNNNNNNNNNNNNNNTCTTGTGTATGATTCGCTTTTCCC [enriched Tth pool round 10]” has a Kd ([2]; cross binding, saturates at about 50%) of 0.3 nM and a Kd ([3]; Tth binding buffer, room temp) of 5 nM.

Work on “TTCTCGGTTGGTCTCTGGCGGAGCNNNNNNNNNNNNNNNNNNNNNNNNNNNNNNTCTTGTGTATGATTCGCTTTTCCC [random ssDNA pool]” yielded a Kd ([3]; 50 mM Bicine pH 8.3, 90 mM KCl, 3.5 mM Mn(OAc)2, room temp) of 70 nM.
